Article doi:10.1101/2021.04.19.440493

Experiments:
[1] = biological target: α-domain of Ag43 from UPEC UTI89 (α^43_UTI89) (E. coli O18:K1:H7 UTI89 (UPEC)); test: AUC
[2] = biological target: α-domain of Ag43 from UPEC UTI89 (α^43_UTI89) (E. coli O18:K1:H7 UTI89 (UPEC)); test: small-angle X-ray scattering
[3] = biological target: α-domain of Ag43a from UPEC CFT073 (α^43a) (E. coli CFT073 (UPEC)); test: AUC
[4] = biological target: α-domain of Ag43a from UPEC CFT073 (α^43a) (E. coli CFT073 (UPEC)); test: small-angle X-ray scattering

Substance	stoichiometry N [1]	stoichiometry N [2]	stoichiometry N [3]	stoichiometry N [4]
α-domain of Ag43 from UPEC UTI89 (α^43_UTI89) (domain or fragment)	2	2	–	–
α-domain of Ag43a from UPEC CFT073 (α^43a) (domain or fragment)	–	–	2	2
